The source of these data is doi:10.1101/2025.10.06.680677, “Mechanistic insight into the oligomerisation of Arabidopsis CRY1 and its inhibition by BIC1” (bioRxiv, 2025).

Substitutions are numbered along the chain they refer to. Numbers in names are those of the source. Some results are limits rather than exact numbers.

The chains are these.
B1: Arabidopsis thaliana CRY1 PHR domain (residues 1-509) (domain or fragment, UniProt Q43125 1-509, looked up)
chain: MSGSVSGCGSGGCSIVWFRRDLRVEDNPALAAAVRAGPVIALFVWAPEEEGHYHPGRVSRWWLKNSLAQLDSSLRSLGTCLITKRSTDSVASLLDVVKSTGASQIFFNHLYDPLSLVRDHRAKDVLTAQGIAVRSFNADLLYEPWEVTDELGRPFSMFAAFWERCLSMPYDPESPLLPPKKIISGDVSKCVADPLVFEDDSEKGSNALLARAWSPGWSNGDKALTTFINGPLLEYSKNRRKADSATTSFLSPHLHFGEVSVRKVFHLVRIKQVAWANEGNEAGEESVNLFLKSIGLREYSRYISFNHPYSHERPLLGHLKFFPWAVDENYFKAWRQGRTGYPLVDAGMRELWATGWLHDRIRVVVSSFFVKVLQLPWRWGMKYFWDTLLDADLESDALGWQYITGTLPDSREFDRIDNPQFEGYKFDPNGEYVRRWLPELSRLPTDWIHHPWNAPESVLQAAGIELGSNYPLPIVGLDEAKARLHEALSQMWQLEAASRAAIENGSEEG
notes: Cryptochrome 1 (CRY1), Arabidopsis thaliana, photolyase homology region (PHR) domain, residues 1-509; Cloned in pACYCDuet-1; Monomer about 59 kDa by LILBID-MS; also called wild-type CRY1; source: E. coli BL21 Star (DE3), purified (Ni-NTA, SEC on Superdex 200)
B2: Arabidopsis thaliana CRY1 PHR domain (residues 1-509) L407F mutant (domain or fragment, UniProt Q43125 1-509, looked up)
chain: B1 chain with L407F
notes: Cryptochrome 1 (CRY1), Arabidopsis thaliana, PHR domain, residues 1-509, with L407F; Cloned in pACYCDuet-1; also called CRY1^L407F; constitutively active CRY1; source: E. coli BL21 Star (DE3), purified (Ni-NTA, SEC on Superdex 200)
B3: Blue-light Inhibitor of Cryptochromes 1 (BIC1) triple mutant C99A, C105A, C136A (natural protein, Arabidopsis thaliana, UniProt Q9LXJ1 1-140, looked up)
chain: MMNIDDTTSPMAHPIGPSQPPSDQTKQDPPSLPQEAASSVSADKKDLALLEEKPKQSQEEDRVDTGRERLKKHRREIAGRVWIPEIWGQEELLKDWIDASTFDTALVPAGISSARTALVEEARRAASASGGLHNRALILR
notes: BIC1, Arabidopsis thaliana, synthetic gene with three cysteine-to-alanine substitutions; Cloned in pET28a(+) (BioCat GmbH); About 20 kDa by LILBID-MS; also called BIC1^3CA; source: E. coli BL21 Star (DE3), purified (Ni-NTA, SEC on Superdex 75)
B4: Arabidopsis thaliana wild-type BIC1 protein (natural protein, UniProt Q9LXJ1 1-140, looked up)
chain: B3 chain with A99C, A105C, A136C
notes: BIC1, Arabidopsis thaliana, wild type with its cysteines; The construct and its host are not described; the methods say in general that recombinant proteins carried an N-terminal His6-tag; The dimer is held by disulfide bonds

Data set [1] concerns the molecule itself. Description: native MS; time-resolved nESI-MS, CRY1 15 µM, blue light, room temperature, with 100 µM ATP; reversible two-step model (monomer to dimer, dimer to tetramer).
Data set [2] deals with the molecule itself. Description: native MS; time-resolved nESI-MS, 10 scans per second, CRY1 15 µM, blue light, room temperature, no ATP; reversible two-step model (monomer to dimer, dimer to tetramer) fitted with DynaFit.
Data set [3] concerns the molecule itself. Description: native MS; LILBID-MS, under blue light (455 nm LED, 100 µmol m-2 s-1), 20 °C, 200 mM ammonium acetate, 10 mM DTT, pH 7.4; BIC1 equimolar, added before illumination or to pre-illuminated tetrameric CRY1.
Data set [4] concerns the molecule itself. Description: SEC; analytical SEC, Superdex 200 10/300 GL, 10 °C, 30 µM protein, ß-mercaptoethanol, kept in darkness (red safe light). In general terms: SEC sorts molecules by how far they enter the pores of the column.
Data set [5] addresses B1. Description: native MS; quantitative LILBID-MS (qLILBID-MS), label-free, in the dark; KD from dissociation plots. Particulars: both partners purified.
Data set [6] deals with B2. The data set is described as above. The conditions noted are these: both partners purified.
In data set [7] the target is B1. Description: native MS; quantitative LILBID-MS (qLILBID-MS), label-free, under blue light; KD from dissociation plots. The conditions noted are these: both partners purified.
Data set [8] concerns the molecule itself. As to the kind of experiment: not stated; wild-type BIC1, disulfide bond-mediated dimerization (Extended Data Fig. 5a, b); method not given.

On to B1, for which, in data set [1], the “fold change of the rate of tetramer formation with 100 µM ATP against no ATP” value was around 4 fold, the “fold slowing of dimer dissociation with 100 µM ATP against no ATP” value is above 10 fold and the “fold slowing of tetramer dissociation with 100 µM ATP against no ATP” value was around 2 fold. In data set [2], the “half-life of tetramer formation (single-exponential fit)” value is around 18 s. Also, the stoichiometry N (usually the number of molecules, sites or subunits per partner or assembly) in data set [3] was 4.
Turning to B2, the “stoichiometry N” value in data set [4] was 4.
Take B3: the equilibrium dissociation constant (Kd) – broadly, the free concentration of one partner at which half of the binding sites on the other are occupied at equilibrium, for simple one-to-one binding – in data set [5] is around 1200 nM; in data set [6], 100 ± 30 nM; in data set [7], 130 ± 90 nM.
Turning to B4, in data set [8], the “stoichiometry N” value was 2.
